Results on 38 sequences are retold here after the supplement of paper PMC12636428.

The data set has as its system Saccharomyces cerevisiae. Kind of data set: transcriptional activation domain activity (GFP:mCherry ratio, weighted mean of sorted bins, harmonized to initial dataset scale) (arbitrary fluorescence ratio units); higher = stronger transcriptional activation. To be noted: beta-estradiol 1 µM; induction time 4 h. Summed up:
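Each value is an activation activity: the read-weighted mean of bin median fluorescence, averaged across barcodes, then mapped linearly to the initial dataset scale. The tiles, fused to an estradiol-inducible synthetic transcription factor, sat at the yeast URA3 locus in GFP-reporter diploids. Cells spent 4 hours at 30 °C in SC with 1 uM beta-estradiol before sorting into 8 GFP:mCherry bins, and tiles below 50 reads were removed.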

Consider “YSRLILSVIIQFYQRCSDRFQDVVSRNSLDLTDTRLLVSARWAQRENLVVCLS”, for which the “transcriptional activation domain activity” value turned out to be 49600. The value for “YSRRDRPRDRGDRGDRDGGEERGGRRDRGDRNDRFGGEDRGGRGRRDGGGGGG” was 10400; that for “YSYVDSNMDSISSVVSEDLLDERGHEKIEDEDEDNDLDEDDIYDISLLKNRRK” was 26500; that for “YTIGFVGFVMSLQKGYLKQQFGLFCWVHMSLLIIVLSSHFVINNILEGLIWFW” was 54600. “YTKTIATRNVANQTRLGKVRKSSVIVIAGNGHGRLGVGMAKSIEAPVATMAAT”: the “transcriptional activation domain activity” value turned out to be 56400. Take “YTLILSLFYSLAPVLFRLSSAAFFNISLLTGSFWGVAIGVKVFHLSIHWMYPI”: the “transcriptional activation domain activity” value amounted to 42600.

For the sequence “YTNVYRCIKDEVYLLLSRLSLNWRKQDDYIWLLNLWTIWAAPWRLGNVPIISG”, the “transcriptional activation domain activity” value is 53500. For the sequence “YTRCEVIYLKRSLPSYFGPSMLQFTILFILIVTNSIVLLGLFLLLCRTLWGLA”, the “transcriptional activation domain activity” value was determined as 19500. Take “YTRQLALGCVTRLLWTYLFRCTESTVIAFKKLDGIIKTLFPPFRRTIYPSETP”: the “transcriptional activation domain activity” value is 61400. Consider “YTRVVTRFKRLFVSSRGYTAFIPALFKVFCDVEHLAPIRSAIVFAWCRFYAVH”, for which the “transcriptional activation domain activity” value worked out at 67300. In the case of “YTSLIILVTWLSIVFSKFVLHRRTFGLVFVHLHFFFLFALFSFFFSYCVCIRI”, the “transcriptional activation domain activity” value came to 60600. As to “YTTPQFAGMWSQLVEWQWLVIEKFLDILLNMLYLLHGMSYIWGNLFLPYFRLV”, the “transcriptional activation domain activity” value is 53600.

For “YTYLSNAQLILSICSLYSCSPYLDPYMLLPLLRWAFLYVFLLVLAFAAVLFSA”, the “transcriptional activation domain activity” value is 41800.

As to “YVAPGVASPIPVNYIWTPFASWRLVAILISLLSLYSWGMLIFFFWFLFWLLLY”, the “transcriptional activation domain activity” value is below 6570. Turning to “YVASQLIEIFLPEALFSVVYLSNAGKCLSREEFLVQFTFLVRLFKHEFVYPWN”, the “transcriptional activation domain activity” value came out at 30700. Turning to “YVDEENQSSNGAVRLWKRHFTLSGIMNRLLRKTVRRNTWIYISVSTLIVQIRR”, the “transcriptional activation domain activity” value was 45700. Turning to “YVGKYPESIDTFSIVPRTPTSRLIRSYLKTILANPESRKIFYFLMLNLAYMLV”, the “transcriptional activation domain activity” value was 58300. Then “YVGRSVLIHQSHGSFEILILWNHYPLLCFFFCHGRRRVFSARLSLLLFCLCRF”, with 54700. As for “YVILVAVSIFTTTYVMLTSLPVLFQQCPFQTPLSSIIWYLGHFLVIAFLSLFS”, the “transcriptional activation domain activity” value came to 62600. “YVKSRGYKTIIRFFPHEVADLELARACMRGAAREPRQWALRYAALLWLALICM”: the “transcriptional activation domain activity” value was 68700.

“YVLATCYPKWVYEVLMATRGRIWCVLILLAYPFFAVGVGVIVCVMGLLVAAWI”: the “transcriptional activation domain activity” value was 35800.

Take “YVLVLTYLNYFVLILFGHMRDILGKVFKAQAYVHLKTVNGYAPLVSDFDSFYN”: the “transcriptional activation domain activity” value was found to be 63900. In the case of “YVRRARGYVMYGLFQLMLRFLLAGFFFFSFRGGDMGIGCGYRLLLLLFFFFIY”, the “transcriptional activation domain activity” value is 35800. As for “YVSVNEHGDETDSSFVRLVNLGSSIVIQHITCYLQSRVVFYLMNLHSMPRAIF”, the “transcriptional activation domain activity” value is 60800.

On to “YVVLEVGLNVQLDRMAQSDARMVVHALSGGPFIDVVRWVPLRMSSGAFQIGLR”, for which the “transcriptional activation domain activity” value is 68300. Then “YVVLQGLSGAASGFLQIVPLIIYYVKLFLMGSTPRSVYKIKYTLRHVSWGTLF”, with 66600; and “YVVQYKNSLIGKHFKMLQQLGVFHLHDLCTPLLFDLWKATGELGALLWYPEIK”, with 33300. On to “YVVVVLTAMQVGLATETLAHNKAFVTISYGFSIFSIFIPIVFTLLLLLVFFFV”, for which the “transcriptional activation domain activity” value turned out to be 19400.

For the sequence “YYAECCTHTGNAHKVQRKMLNPVFTTKHMKARMWYQFMLLFLKEALMNELKGY”, the “transcriptional activation domain activity” value was found to be 14300. As for “YYCLLWVRVSIKGQKGAVIAPEQIVIGWVDFHALIIVLWSNRISITLCVARVI”, the “transcriptional activation domain activity” value turned out to be 29200.

Take “YYGMYPQDISTLGVSPRTPTSRLIRSYMKTILSNPESRKIFYFLMLNMCYMLV”: the “transcriptional activation domain activity” value worked out at 58900.

“YYGRTIVRTNFWLKTYINFEIDALLLNGRATVRRFINHLYQDQRAKLFKECKH”: the “transcriptional activation domain activity” value amounted to 54700. For the sequence “YYGWLPFGISSILVEIPYCMFFCASFMCGFYWTAGLVNHPVNCGYFYLMLMFF”, the “transcriptional activation domain activity” value is 69900. For “YYLGKYQENSKEKRKFQVIRSGMSELNHILYMALDNATNMVIMWMLLVQYHAT”, the “transcriptional activation domain activity” value is 55600. Then “YYPLFLGRLLPLSLLSFFVYFILFTFAFLPQLAFLYIFHGRGAWLNAIFLVLG”, with 44200; and “YYVILLSIKLFGINSSLWALLITLTNWFNLYLSCRLIPNNIEGILTIIALYYW”, with 66500; and “YYVPLLASPTFWAVTLPLYCVFVGIQVFFVFLEAAGLSLHLVVIFWWLGWWAG”, with 53000. As for “YYYFNYFYFYYFYYYFIIIIIILFYLILFLFLFLLLLLFIYFYFYFNYFYYLF”, the “transcriptional activation domain activity” value turned out to be 69700.
